Laboratory results as given in patent publication US20240182544A1.
Values joined by “and” are separate entries in the source; they are usually repeats but may differ in a detail not shown here. Equal values may be shown once.

Target: Death Receptor 5 (UniProt O14763)
Experiment: cell-based or functional assay

| Substance | IC50 of cell killing (cell viability, CellTiter-Glo, 24 h), CAPAN-1 cells | IC50 of cell killing (cell viability, CellTiter-Glo, 24 h), Colo 205 cells | IC50 of cell killing (cell viability, CellTiter-Glo, 24 h), H2122 cells | IC50 of cell killing (cell viability, CellTiter-Glo, 24 h), H2228 cells | IC50 of cell killing (cell viability, CellTiter-Glo, 24 h), HT29 cells | IC50 of cell killing (cell viability, CellTiter-Glo, 24 h), HTC15 cells | IC50 of cell killing (cell viability, CellTiter-Glo, 24 h), MDA-BD231 cells | IC50 of cell killing (cell viability, CellTiter-Glo, 24 h), SW948 cells | further results |
| --- | --- | --- | --- | --- | --- | --- | --- | --- | --- |
| Conatumumab Multabody (from UniProt P02792 91-175) | 0.002 µg/mL and 0.00087 nM | 0.16 pM | 0.00015 µg/mL and 6.4e-05 nM | 0.031 µg/mL and 0.013 nM | 0.0024 µg/mL and 0.001 nM | 0.00053 µg/mL and 0.00023 nM | 0.00071 µg/mL and 0.00031 nM | 0.16 pM | – |
| Tigatuzumab Multabody (from UniProt P02792 1-175; P02792 1-175) | 0.0026 µg/mL and 0.0011 nM | 0.00085 µg/mL and 0.00037 nM | 0.00014 µg/mL and 5.9e-05 nM | 0.015 µg/mL and 0.0067 nM | 0.0084 µg/mL and 0.0037 nM | 0.002 µg/mL and 0.00087 nM | 0.00052 nM and 0.0012 µg/mL | 0.00037 µg/mL and 0.00016 nM | Fold-change of killing IC50, MB vs parental IgG, mass basis, CAPAN-1 cells: > 5000 fold; Fold-change of killing IC50, MB vs parental IgG, mass basis, Colo 205 cells: > 11800 fold; Fold-change of killing IC50, MB vs parental IgG, mass basis, H2122 cells: 2940 fold; Fold-change of killing IC50, MB vs parental IgG, mass basis, H2228 cells: > 651 fold; Fold-change of killing IC50, MB vs parental IgG, mass basis, HT29 cells: > 1190 fold; Fold-change of killing IC50, MB vs parental IgG, mass basis, HTC15 cells: > 5000 fold; Fold-change of killing IC50, MB vs parental IgG, mass basis, MDA-BD231 cells: > 8400 fold; Fold-change of killing IC50, MB vs parental IgG, mass basis, SW948 cells: > 27000 fold; Fold-change of killing IC50, MB vs parental IgG, molar basis, CAPAN-1 cells: > 59300 fold; Fold-change of killing IC50, MB vs parental IgG, molar basis, Colo 205 cells: > 181000 fold; Fold-change of killing IC50, MB vs parental IgG, molar basis, H2122 cells: 45600 fold; Fold-change of killing IC50, MB vs parental IgG, molar basis, H2228 cells: > 10000 fold; Fold-change of killing IC50, MB vs parental IgG, molar basis, HT29 cells: > 18300 fold; Fold-change of killing IC50, MB vs parental IgG, molar basis, HTC15 cells: > 77000 fold; Fold-change of killing IC50, MB vs parental IgG, molar basis, MDA-BD231 cells: > 129000 fold; Fold-change of killing IC50, MB vs parental IgG, molar basis, SW948 cells: > 416000 fold |
